Test results: article PMC8233153, “Peters plus syndrome mutations affect the function and stability of human β1,3-glucosyltransferase” (The Journal of Biological Chemistry, 2021)

B1: B3GLCTΔREEL (human B3GLCT without REEL motif) (Homo sapiens) (protein)
chain: SEDTKKEVKQSQDLEKSGISRKNDIDLKGIVFVIQSQSNSFHAKRAEQLKKSILKQAADLTQELPSVLLLHQLAKQEGAWTILPLLPHFSVTYSRNSSWIFFCEEETRIQIPKLLETLRRYDPSKEWFLGKALHDEEATIIHHYAFSENPTVFKYPDFAAGWALSIPLVNKLTKRLKSESLKSDFTIDLKHEIALYIWDKGGGPPLTPVPEFCTNDVDFYCATTFHSFLPLCRKPVKKKDIFVAVKTCKKFHGDRIPIVKQTWESQASLIEYYSDYTENSIPTVDLGIPNTDRGHCGKTFAILERFLNRSQDKTAWLVIVDDDTLISISRLQHLLSCYDSGEPVFLGERYGYGLGTGGYSYITGGGGMVFSREAVRRLLASKCRCYSNDAPDDMVLGMCFSGLGIPVTHSPLFHQARPVDYPKDYLSHQVPISFHKHWNIDPVKVYFTWLAPSDEDKARQETQKGF
notes: secreted from pSecTag2/HygroC, C-terminal Myc-His6 tag kept; native signal peptide replaced by vector signal; C-terminal ER-retention motif REEL (last 4 of 498 residues) removed; forward primer starts near SEDTKKEV; HEK293T medium, Ni-NTA
B2: B3GLCTΔREEL (human B3GLCT without REEL motif) (Homo sapiens; R337H) (protein)
chain: SEDTKKEVKQSQDLEKSGISRKNDIDLKGIVFVIQSQSNSFHAKRAEQLKKSILKQAADLTQELPSVLLLHQLAKQEGAWTILPLLPHFSVTYSRNSSWIFFCEEETRIQIPKLLETLRRYDPSKEWFLGKALHDEEATIIHHYAFSENPTVFKYPDFAAGWALSIPLVNKLTKRLKSESLKSDFTIDLKHEIALYIWDKGGGPPLTPVPEFCTNDVDFYCATTFHSFLPLCRKPVKKKDIFVAVKTCKKFHGDRIPIVKQTWESQASLIEYYSDYTENSIPTVDLGIPNTDRGHCGKTFAILERFLNHSQDKTAWLVIVDDDTLISISRLQHLLSCYDSGEPVFLGERYGYGLGTGGYSYITGGGGMVFSREAVRRLLASKCRCYSNDAPDDMVLGMCFSGLGIPVTHSPLFHQARPVDYPKDYLSHQVPISFHKHWNIDPVKVYFTWLAPSDEDKARQETQKGF
notes: as for B1
B3: B3GLCTΔREEL (human B3GLCT without REEL motif) (Homo sapiens; V245M) (protein)
chain: SEDTKKEVKQSQDLEKSGISRKNDIDLKGIVFVIQSQSNSFHAKRAEQLKKSILKQAADLTQELPSVLLLHQLAKQEGAWTILPLLPHFSVTYSRNSSWIFFCEEETRIQIPKLLETLRRYDPSKEWFLGKALHDEEATIIHHYAFSENPTVFKYPDFAAGWALSIPLVNKLTKRLKSESLKSDFTIDLKHEIALYIWDKGGGPPLTPVPEFCTNDMDFYCATTFHSFLPLCRKPVKKKDIFVAVKTCKKFHGDRIPIVKQTWESQASLIEYYSDYTENSIPTVDLGIPNTDRGHCGKTFAILERFLNRSQDKTAWLVIVDDDTLISISRLQHLLSCYDSGEPVFLGERYGYGLGTGGYSYITGGGGMVFSREAVRRLLASKCRCYSNDAPDDMVLGMCFSGLGIPVTHSPLFHQARPVDYPKDYLSHQVPISFHKHWNIDPVKVYFTWLAPSDEDKARQETQKGF
notes: as for B1
B4: B3GLCTΔREEL (human B3GLCT without REEL motif) (Homo sapiens; T179S) (protein)
chain: SEDTKKEVKQSQDLEKSGISRKNDIDLKGIVFVIQSQSNSFHAKRAEQLKKSILKQAADLTQELPSVLLLHQLAKQEGAWTILPLLPHFSVTYSRNSSWIFFCEEETRIQIPKLLETLRRYDPSKEWFLGKALHDEEATIIHHYAFSENPSVFKYPDFAAGWALSIPLVNKLTKRLKSESLKSDFTIDLKHEIALYIWDKGGGPPLTPVPEFCTNDVDFYCATTFHSFLPLCRKPVKKKDIFVAVKTCKKFHGDRIPIVKQTWESQASLIEYYSDYTENSIPTVDLGIPNTDRGHCGKTFAILERFLNRSQDKTAWLVIVDDDTLISISRLQHLLSCYDSGEPVFLGERYGYGLGTGGYSYITGGGGMVFSREAVRRLLASKCRCYSNDAPDDMVLGMCFSGLGIPVTHSPLFHQARPVDYPKDYLSHQVPISFHKHWNIDPVKVYFTWLAPSDEDKARQETQKGF
notes: as for B1
B5: B3GLCTΔREEL (human B3GLCT without REEL motif) (Homo sapiens; Q457R) (protein)
chain: SEDTKKEVKQSQDLEKSGISRKNDIDLKGIVFVIQSQSNSFHAKRAEQLKKSILKQAADLTQELPSVLLLHQLAKQEGAWTILPLLPHFSVTYSRNSSWIFFCEEETRIQIPKLLETLRRYDPSKEWFLGKALHDEEATIIHHYAFSENPTVFKYPDFAAGWALSIPLVNKLTKRLKSESLKSDFTIDLKHEIALYIWDKGGGPPLTPVPEFCTNDVDFYCATTFHSFLPLCRKPVKKKDIFVAVKTCKKFHGDRIPIVKQTWESQASLIEYYSDYTENSIPTVDLGIPNTDRGHCGKTFAILERFLNRSQDKTAWLVIVDDDTLISISRLQHLLSCYDSGEPVFLGERYGYGLGTGGYSYITGGGGMVFSREAVRRLLASKCRCYSNDAPDDMVLGMCFSGLGIPVTHSPLFHQARPVDYPKDYLSHRVPISFHKHWNIDPVKVYFTWLAPSDEDKARQETQKGF
notes: as for B1

The molecules below were run on O=c1ccn([C@@H]2O[C@H](CO[P@@](=O)(O)O[P@@](=O)(O)O[C@H]3O[C@H](CO)[C@@H](O)[C@H](O)[C@H]3O)[C@@H](O)[C@H]2O)c(=O)[nH]1 (assay: UDP-Glo glycosyltransferase assay (UDP release, luminescence), Michaelis-Menten fit). Conditions: donor varied, acceptor Fuc-O-TSR3 (human thrombospondin-1 TSR3), 50 mM Tris/HCl pH 7.5, 37 °C, 20 min, no metal added.
Assay type: biochemical
Description: UDP-Glo glycosyltransferase assay (UDP release, luminescence), Michaelis-Menten fit on B3GLCTΔREEL (human B3GLCT without REEL motif)

Point of comparison: B5, Km 17.39 µM. Against it:
- B1 — within 1.5-fold, 25.47 µM
- B2 — within 1.5-fold, 21.89 µM
- B3 — within 1.5-fold, 18.74 µM
- B4 — within 1.5-fold, 20.94 µM

Point of comparison: B5, Vmax 0.0236 µmol/min/mg. Against it:
- B1 — higher, 0.0432 µmol/min/mg
- B2 — higher, 0.0277 µmol/min/mg
- B3 — higher, 0.0246 µmol/min/mg
- B4 — higher, 0.0324 µmol/min/mg

Point of comparison: B3, kcat 0.023 s⁻¹. Against it:
- B1 — 1.8-fold higher, 0.0403 s⁻¹
- B2 — within 1.5-fold, 0.0258 s⁻¹
- B4 — within 1.5-fold, 0.0303 s⁻¹
- B5 — within 1.5-fold, 0.022 s⁻¹

These molecules were tested against O-fucosylated TSR3 from human thrombospondin-1 (Fuc-O-TSR3) (human) (assay: not given). Conditions: not given.

Point of comparison: “human B3GLCTΔREEL T179S (PTRPLS-like mutant) (from UniProt Q6Y288 1-498) (enzyme)”, K (half) (μM) for the acceptor substrate Fuc-O-TSR3 in the in vitro glucosyltransferase assay (UDP-Glo; allosteric sigmoidal fit) 8.04 µM. Against it:
- human B3GLCTΔREEL R337H (PTRPLS-like mutant) (from UniProt Q6Y288 1-498) (enzyme) — within 1.5-fold, 6.65 µM
- human B3GLCTΔREEL V245M (PTRPLS-like mutant) (from UniProt Q6Y288 1-498) (enzyme) — within 1.5-fold, 6.64 µM
- human B3GLCT with the REEL motif removed (B3GLCTΔREEL), wild type (from UniProt Q6Y288 1-498) (enzyme) — within 1.5-fold, 8.9 µM
- human B3GLCTΔREEL Q457R (PTRPLS-like mutant) (from UniProt Q6Y288 1-498) (enzyme) — within 1.5-fold, 5.73 µM
